Measurements: the supplement of paper PMC9112550, “Optimization of the antimicrobial peptide Bac7 by deep mutational scanning” (BMC Biology, 2022)

Tested on: Escherichia coli TOP10
Experiment: shrunken log2 fold change of peptide-encoding DNA abundance (4.5 h post-induction vs induction); higher = less antimicrobial activity (less host growth inhibition)
Settings: time post-induction: 4.5 h; library: site-saturation at positions 5, 18, 19, 20
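Note: peptides expressed intracellularly from a pBAD plasmid library in pooled LB shake-flask culture, induced with 0.3% L-arabinose, DNA abundance read by NGS, three biological replicates, DESeq2 with apeglm shrinkage.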

| Sequence | shrunken log2 fold change |
| --- | --- |
| RRIRLRPPRLPRPRPRPVDHPRP | -0.0221 |
| RRIRRRPPRLPRPRPRPTLLPRP | 0.465 |
| RRIRYRPPRLPRPRPRPADTPRP | -0.00151 |
| RRIRIRPPRLPRPRPRPQEDPRP | -0.0165 |
| RRIRLRPPRLPRPRPRPNRWPRP | 0.254 |
| RRIRKRPPRLPRPRPRPLLTPRP | 0.652 |
| RRIRQRPPRLPRPRPRPMCEPRP | -0.00149 |
| RRIRARPPRLPRPRPRPIEYPRP | -0.267 |
| RRIRNRPPRLPRPRPRPPNYPRP | -0.564 |
| RRIRQRPPRLPRPRPRPSPHPRP | -0.511 |
| RRIRRRPPRLPRPRPRPHQDPRP | 0.0414 |
| RRIRERPPRLPRPRPRPKAKPRP | -0.0257 |
| RRIRHRPPRLPRPRPRPHDYPRP | -0.0577 |
| RRIRIRPPRLPRPRPRPWTAPRP | -0.307 |
| RRIRERPPRLPRPRPRPHWNPRP | -0.843 |
| RRIRHRPPRLPRPRPRPNMNPRP | -0.424 |
| RRIRMRPPRLPRPRPRPICPPRP | -0.123 |
| RRIRKRPPRLPRPRPRPDCAPRP | 1.1 |
| RRIRPRPPRLPRPRPRPGNSPRP | 0.0886 |
| RRIRFRPPRLPRPRPRPRTCPRP | -0.0542 |
| RRIRYRPPRLPRPRPRPANMPRP | -0.683 |
| RRIRHRPPRLPRPRPRPGPFPRP | -0.225 |
| RRIRKRPPRLPRPRPRPFSVPRP | 0.034 |
| RRIRNRPPRLPRPRPRPQEQPRP | 0.042 |
| RRIRHRPPRLPRPRPRPMVFPRP | 0.14 |

| Sequence | shrunken log2 fold change |
| --- | --- |
| RRIRDRPPRLPRPRPRPFMMPRP | -0.265 |
| RRIRCRPPRLPRPRPRPESPPRP | 0.315 |
| RRIRGRPPRLPRPRPRPRDFPRP | 0.619 |
| RRIRDRPPRLPRPRPRPYEGPRP | 0.00106 |
| RRIRCRPPRLPRPRPRPSQGPRP | -0.137 |
| RRIRERPPRLPRPRPRPNYMPRP | -0.667 |
| RRIRDRPPRLPRPRPRPVQLPRP | 0.0283 |
| RRIRVRPPRLPRPRPRPVKWPRP | -0.0595 |
| RRIRDRPPRLPRPRPRPELAPRP | 1.68 |
| RRIRRRPPRLPRPRPRPSDEPRP | -0.0356 |
| RRIRSRPPRLPRPRPRPAFRPRP | 0.452 |
| RRIRARPPRLPRPRPRPLAVPRP | 0.716 |
| RRIRKRPPRLPRPRPRPVEVPRP | 0.0844 |
| RRIRIRPPRLPRPRPRPFMQPRP | -0.91 |
| RRIRCRPPRLPRPRPRPNCHPRP | -0.314 |
| RRIRVRPPRLPRPRPRPQELPRP | -0.0343 |
| RRIRPRPPRLPRPRPRPRRLPRP | 0.279 |
| RRIRMRPPRLPRPRPRPTNQPRP | 0.279 |
| RRIRERPPRLPRPRPRPLEHPRP | -0.277 |
| RRIRPRPPRLPRPRPRPRYLPRP | -0.402 |
| RRIRHRPPRLPRPRPRPVGRPRP | 0.226 |
| RRIRARPPRLPRPRPRPPIWPRP | 0.507 |
| RRIRIRPPRLPRPRPRPNKMPRP | -0.464 |
| RRIRSRPPRLPRPRPRPDSMPRP | -0.339 |
| RRIRTRPPRLPRPRPRPVYTPRP | -1.09 |

| Sequence | shrunken log2 fold change |
| --- | --- |
| RRIRVRPPRLPRPRPRPSWFPRP | -0.262 |
| RRIRKRPPRLPRPRPRPIGKPRP | 0.0962 |
| RRIRMRPPRLPRPRPRPWRRPRP | 0.22 |
| RRIRTRPPRLPRPRPRPWGNPRP | -0.602 |
| RRIRSRPPRLPRPRPRPNWMPRP | -0.0249 |
| RRIRNRPPRLPRPRPRPIKHPRP | -0.724 |
| RRIRKRPPRLPRPRPRPNNLPRP | -0.218 |
| RRIRVRPPRLPRPRPRPWMCPRP | -0.522 |
| RRIRPRPPRLPRPRPRPLFFPRP | 0.0106 |
| RRIRNRPPRLPRPRPRPRERPRP | 0.0512 |
| RRIRDRPPRLPRPRPRPQQGPRP | -0.00207 |
| RRIRMRPPRLPRPRPRPNVQPRP | -0.166 |
| RRIRGRPPRLPRPRPRPSDDPRP | 0.108 |
| RRIRLRPPRLPRPRPRPFEQPRP | 0.305 |
| RRIRWRPPRLPRPRPRPDTDPRP | 0.225 |
| RRIRWRPPRLPRPRPRPTWQPRP | 0.125 |
| RRIRWRPPRLPRPRPRPMFPPRP | 0.0483 |
| RRIRARPPRLPRPRPRPFHSPRP | -0.217 |
| RRIRDRPPRLPRPRPRPTPYPRP | -0.13 |
| RRIRMRPPRLPRPRPRPTDIPRP | 0.501 |
| RRIRCRPPRLPRPRPRPFASPRP | 0.0328 |
| RRIRRRPPRLPRPRPRPPDDPRP | 0.743 |
| RRIRDRPPRLPRPRPRPEDGPRP | 0.316 |
| RRIRNRPPRLPRPRPRPSMIPRP | -0.427 |
| RRIRLRPPRLPRPRPRPMAVPRP | -0.0225 |

| Sequence | shrunken log2 fold change |
| --- | --- |
| RRIRPRPPRLPRPRPRPWYIPRP | -0.472 |
| RRIRWRPPRLPRPRPRPNWAPRP | -0.0835 |
| RRIRIRPPRLPRPRPRPQPEPRP | 0.0576 |
| RRIRLRPPRLPRPRPRPLMAPRP | -0.246 |
| RRIRTRPPRLPRPRPRPMKTPRP | 0.0208 |
| RRIRHRPPRLPRPRPRPFRTPRP | -0.0018 |
| RRIRFRPPRLPRPRPRPSDLPRP | -0.0388 |
| RRIRCRPPRLPRPRPRPTAMPRP | -0.113 |
| RRIRPRPPRLPRPRPRPANGPRP | 0.0748 |
| RRIRKRPPRLPRPRPRPAITPRP | 0.613 |
| RRIRVRPPRLPRPRPRPGTTPRP | -0.108 |
| RRIRFRPPRLPRPRPRPAQHPRP | 0.265 |
| RRIRQRPPRLPRPRPRPDSNPRP | -0.382 |
| RRIRNRPPRLPRPRPRPYPHPRP | -0.0269 |
| RRIRPRPPRLPRPRPRPKYCPRP | -0.91 |
| RRIRIRPPRLPRPRPRPSWCPRP | -0.532 |
| RRIRHRPPRLPRPRPRPRLHPRP | 0.0986 |
| RRIRPRPPRLPRPRPRPDGLPRP | -0.117 |
| RRIRKRPPRLPRPRPRPHVVPRP | -0.183 |
| RRIRYRPPRLPRPRPRPDSQPRP | -0.429 |
| RRIRIRPPRLPRPRPRPLGTPRP | -0.356 |
| RRIRIRPPRLPRPRPRPLWPPRP | -0.0906 |
| RRIRVRPPRLPRPRPRPYFKPRP | -0.49 |
| RRIRSRPPRLPRPRPRPGVTPRP | 0.0674 |
| RRIRTRPPRLPRPRPRPYCTPRP | 1.36 |

| Sequence | shrunken log2 fold change |
| --- | --- |
| RRIRLRPPRLPRPRPRPCCHPRP | -0.215 |
| RRIRARPPRLPRPRPRPMWAPRP | 0.557 |
| RRIRARPPRLPRPRPRPIGFPRP | -0.0732 |
| RRIRGRPPRLPRPRPRPAHMPRP | 0.145 |
| RRIRERPPRLPRPRPRPKTKPRP | -0.00738 |
| RRIRERPPRLPRPRPRPNTNPRP | -0.0492 |
| RRIRPRPPRLPRPRPRPHSLPRP | -0.0621 |
| RRIRGRPPRLPRPRPRPLAEPRP | 2.89 |
| RRIRARPPRLPRPRPRPPSEPRP | 1.17 |
| RRIRLRPPRLPRPRPRPHQSPRP | -0.0648 |
| RRIRQRPPRLPRPRPRPGCRPRP | 0.342 |
| RRIRIRPPRLPRPRPRPIYYPRP | -0.539 |
| RRIRYRPPRLPRPRPRPKIKPRP | -0.583 |
| RRIRQRPPRLPRPRPRPDNFPRP | 0.013 |
| RRIRTRPPRLPRPRPRPPLVPRP | 0.184 |
| RRIRWRPPRLPRPRPRPAKCPRP | -0.0704 |
| RRIRMRPPRLPRPRPRPQQRPRP | 0.586 |
| RRIRARPPRLPRPRPRPRLGPRP | 0.606 |
| RRIRHRPPRLPRPRPRPNDIPRP | -0.0322 |
| RRIRLRPPRLPRPRPRPYRNPRP | -1.13 |
| RRIRSRPPRLPRPRPRPSDDPRP | -0.274 |
| RRIRHRPPRLPRPRPRPRTDPRP | 0.0682 |
| RRIRKRPPRLPRPRPRPQMQPRP | 0.134 |
| RRIRSRPPRLPRPRPRPVPKPRP | 0.232 |
| RRIRTRPPRLPRPRPRPNHFPRP | -0.316 |

| Sequence | shrunken log2 fold change |
| --- | --- |
| RRIRPRPPRLPRPRPRPPLPPRP | 0.814 |
| RRIRDRPPRLPRPRPRPTNKPRP | -0.0409 |
| RRIRSRPPRLPRPRPRPMHWPRP | -0.159 |
| RRIRWRPPRLPRPRPRPKDFPRP | 0.0488 |
| RRIRFRPPRLPRPRPRPGNSPRP | 0.00114 |
| RRIRGRPPRLPRPRPRPMYPPRP | 0.244 |
| RRIRRRPPRLPRPRPRPITTPRP | 0.032 |
| RRIRWRPPRLPRPRPRPHSMPRP | -0.216 |
| RRIRIRPPRLPRPRPRPDLPPRP | -0.334 |
| RRIRWRPPRLPRPRPRPIILPRP | -0.283 |
| RRIRCRPPRLPRPRPRPQGDPRP | 0.0138 |
| RRIRQRPPRLPRPRPRPIRAPRP | 0.0231 |
| RRIRVRPPRLPRPRPRPSHRPRP | -0.615 |
| RRIRLRPPRLPRPRPRPAAHPRP | 0.163 |
| RRIRYRPPRLPRPRPRPNFQPRP | -0.578 |
| RRIRMRPPRLPRPRPRPTSYPRP | -0.0286 |
| RRIRGRPPRLPRPRPRPLVHPRP | -0.0335 |
| RRIRYRPPRLPRPRPRPCDLPRP | -0.618 |
| RRIRGRPPRLPRPRPRPPAAPRP | 1.63 |
| RRIRYRPPRLPRPRPRPCHKPRP | -0.821 |
| RRIRVRPPRLPRPRPRPCMAPRP | -0.276 |
| RRIRERPPRLPRPRPRPCYLPRP | -1.07 |
| RRIRNRPPRLPRPRPRPSNDPRP | -0.349 |
| RRIRERPPRLPRPRPRPTCWPRP | 0.0288 |
| RRIRGRPPRLPRPRPRPVKFPRP | 0.326 |
